# Experimental data taken from doi:10.1101/2020.04.03.022970v1.
# Substrate: N[C@@H](Cc1c[nH]c2ccccc12)C(=O)O
# Assay: radiolabelled uptake in intact E. coli MQ614
# Type: cell-based, Halalkalibacterium halodurans
# Conditions: 10-second uptake, 10 mM Tris/Mes pH 8.5, 150 mM NaCl, labelled compound
protein,measurement,value
MhsT (Halalkalibacterium halodurans C-125) (protein) SLKQQTGREQWASRLGFILAAMGSAVGLGNIWRFSYVTGENGGAAFLLVYLGFIALIGIPIVLAEFTIGRRAQSDAVGSFEKLAPGKPWKVAGLMGVAAGFLILSFYGVIAGWILFYLFNYITGQLWSAPAEGFGGFFEGFIANPTLPLFWQALFMIATIWIVAIGVKKGIERSNKILMPLLGVLLIALAIYSLTLGGAKEGLAFLFSPDWSALKDPGVYLAAISQAFFTLSLGMGALITYGSYVSKDSRLPGAAVSVAGLDTAFAIIAGIMIFPAVFALGLSPSGGPGLVFVVLPDIFDSIRLGPIVGIAFFILLGAAALSSAVSLLEVPVAYFMRKFDWSRKQAAITLGVIITLLGIPSSLSFGVLGEVTIIPGLNIFDSVDFIASSVFLPLGGMIIALFIGWGWKTSDALAESDLTDSVWGKLWILSLRFIAPIAILIVFLSAFQIFFN,Km,1.07 ± 0.19 µM
